This note sets out measurements from the DeepSol protein solubility set.

A short description of this data set: soluble on expression in E. coli; label from the status in PepcDB or PDB records.
Turning to “MSLRKIIPINNNWYFKADYEEGYEKVDDLRSFENVNLPHTNIELPYNYFDEKMYQIKSCYKYPLHISEKYRDKVIYIHFEGVMAYAQVYLNGLYIGEHKGGYTPFDIRIDEVYDWKKELNMLTVVVDSTERSDIPPKGGQIDYLTYGGIYREVSLGIYDDVFIKNIKVETHGIYDNEKSLNLIVHLENLNHQSGNVKFKVKINDKNGKEVFYKEFNTYLDAVKDVYSFNIENLKDIKLWDVDNPNLYEIKVGMKINNFSDEYDNKFGFREAVFKPDGFYLNGRKLKLRGLNRHQSYPYVGYAMPRRVQEKDAEILKNELHLNIVRTSHYPQSKHFLNKCDELGLLVFEEIPGWQYIGNSEWKKVAEQNLREMITRDWNHPSIILWGVRINESQDDDAFYKNMNKIAHEIDPTRQTGGVRYITNSSFLEDVYTFNDFIHDGINKPLRKQQEVTGLEHNVPYLVTEYNGHMYPTKRFDNEERQMEHCLRHLRIQNASYLDDSISGAIGWCAFDYNTHKDFGSGDRICYHGVMDMFRLPKFASYVYKSQVSPDIEPILEPVTFWARGERSIGGVIPLIIFTNCDYIELQYGNKTKIDNIYPNRDAYKGIPYPPIIIDYDIVKPEMIGAWGMVWEDLTLKGFYKGNKVIERKFSREPIPTYLYVVPDDTILSATQKDATRIVVKILDQYGNLLPFINEVIKIEIEGPAKLQGPNEVALIGGEGHHHHHH”, the “soluble on expression in E. coli” value is recorded as “soluble”.
The same measure for “MSLKIVSFQDTKQNTGMESAEISEELNKLSKEKSDLQKKVNELQSQVKGYQNAAASSGSMNKQIVNELNTSNMLIGSVDVTGPGIILVITPQNISSSTNNSTGQNNDVITGEDLLYLINELNFSQAEAISINDVRITSMTGIRSSSGGSDIFVGDDRISPYEKITIKAIGDSKLLYSALSYPGVLSSVPSGYKADYDKYGSIKIGKTNKVIKFDYAKPISKEGHHHHHH”: “soluble”; for “MSRLLSGGVGVIFAVLFSVNVGNARDQIQITGSSTVLPYQKIVAEIFGEIYPHFKIPVIESGGTGGGIKEFCRGIGENAIDIVNASRAMKLSELQSCFDAGVKDVEEIRIGYDGIVFATDINGPDWKLQPVDIYRALAARIMKDGKLQSNNVSKWSAVNSALPGWTIAAYIPGEKH”: “not soluble”; for “MSKILGDGHVRKTVDLPDSALRLNYEKKYYEPENGDHLIFSAQLQNGRYSALTAIKPTDLLQVYGSLSYLDEQLKFGHVSIHGRTAKVFVPFSTRTTNGACWYGQGAYIDKPYLIYIFRQEEAHGCKFVAWAIYDDTRKTTSVPPTPTDIQNTSHMKKLGPPTAVQRQSDHQSVEFVQAQSGVIYDISDNYVISVTSPTCQNVEFAPTLYESWMRPGRFITFDGRRVSDVKTSKLMGSNPEDMGSIYPIRKLTPLTITISAIMNKVSHGKAGWAWNDHVGRIYIPWNSTDRYMQASKPLPFTPVHLEIAYNGKHDDIPWVACGSSLVEEQEYDQIVDENSRMLKTEDNWKIQSVVDGPENPSIFLAKFDEKGLKRTAFAKVIDLNSGNIPPTGTLVRITYYAQERHGRHAMRCVLVTTMEKVERFPKVHSIINGSGEKHFPMMYEQPIPKKQVIPPTPVQRVQAAPPPAKNCWNLKNLGSPAAQPSVQDFPTVTGDEDDNIFVEETNTALPPPGFVPPGLVAPPGLPPPPGLPAVPLSTDLAYDFKMTSSIPMTNGLGHLRLGSVWSGTPVEAKQEEPLHYFQQQDNFLGSSFGPISSTFSADNFFTELTASISQPSTSSVVNSGPISDLRNTQSEASSPGLKSDGNEPVEETNCWSSLEAATNGNNPFNSSFSYGFPHMDLPIYQKMMPNANDILKPMPLVEEELKPATSATHSEADSCTCGTEQLIWDLWQNPHFIAAFAASDPETFKRVDAKRKLFSLSNHR”: “not soluble”.
The same measure for “MSAYLDWLADMGIDGAHPGGFELTKQILRKLKIDRSTSVLDVGCGTGQTAAYIAEQYGANVTAIDIHPTMIAKAKQRFAAKAVSVRLHRASVEALPFPAGTFDLALSESVLAFVSLPNALAEIRRVLKNDGLFVGIEACHERLTAAEQKQIAAFYGFRQLMTSAEWKEVLEQSGFGCRQFSYAAAAEAPSLGAPIVIALPPTPEMASMWQMHQQLTAQFGDRLGYCVFCCEP”: “not soluble”.
Regarding “MAHHHHHHMIRINENSKMSSNLSNENEVTYEKNNNIKNKLEEKYKNFLKLKNMNSHMGASQNMNVNNNYTMNELEEFEKINNNYNNNNNNINNNINNYYDYMNIKVSQSVQHNKRLQDFYNNKNSFQHYIKKLKTCRFDADDIRNLLEKRLAYERDNTLIKNIQEEENKKGIGINGNFGSESNSSSSNYDNNYLLYRKINRLNKTNTNKSKNRSRKRKRINSKIDKKYIIKCRACKFINPNGFKIEDYYTCQNCGYNDFSVIRSTSPNNAD”, the “soluble on expression in E. coli” value is “not soluble”.
For the sequence “MGAQYLKRVYLMSVIAETNEALLAKIKALCGDYLREVDTHPGQWDDSSVRRLVRNPPAVYVAWLGQQPNNNPHTVTARWGVFVVAEVLNGQRRNAVGIYQIVETLTAGLHKQRIAPSGMFELQTVQNLWSDTQSGMGVAVYGMYFNAVQPLPDMTSDDTLCDFKIYDHTFNQDKDEHTIDGKTRLTVELPTQSD”, the “soluble on expression in E. coli” value is listed as “not soluble”.
The same measure for “MNYIESLISSVDSQIDTLNKAMIEVQSTIDLLSNGDLASSPEKLISIGSGLFAKGNITIDEDLIVPIGSGIYVAETKERSVERLKKNLEDIKASIQKLLDQRKTLVDQYNTVYATEATRNVK”: “not soluble”.
The same measure for “MTDNQSKSLELILTDSDDAHMLLGTHDKHIKFLEENTHVTINSRGEVIQLIGESSEVELVASVLRALQTLIQRGIKVHTPDVVSALKMAKAGNLEAFIAMYEEEIMKDHHGRAIRIKNVGQKKYIDAVKTHDVIFGVGPAGTGKTFLAVVMAVAALKKGEVQKIILTRPAVEAGESLGFLPGDLKEKVDPYLRPVYDALYQIFGMDHTNRLMERGVIEIAPLAYMRGRTLDDAFVILDEAQNTTVAQMKMFLTRLGFSSKMIVNGDTSQIDLPRGVTSGLVNAERTLKDIEKIAFVNFEASDVVRHPVVAQIIQAYEKEQQKHS”: “not soluble”; for “MPISRYYDVKRDEKGERYLEPYVTGFLLLRLPLLNKGTAFTEEERRLLGLEGLLPPHVHTLEEQKERVYRRYRLIQSPLEKHIYLRHLQDRNEVLFYALVVDHLEEMLPILYTPTVGEAVREFSHIYRYPRGFTASTKNIDRIDEALQNVPLEDVRLIVATDSSAILGIGDQGYGGMAISIGKLTLYTAAGGVGPDKTLPVELDVGTDREDLLKDPLYLGVRHRRLRGEEYFRFLDRFVEAVRRRYPKALIQWEDFAKETAFQVLERYRKVIPSFNDDIQGTGAVALAGVLSACRLKGERLSDQVVVVYGAGAGGIGVAWALVEGMKREGLSEEEAKARVLVLDSKGLLVEGRSMEDYKRPYAQRPERLWGWRFAGEYPNLLETITNARATVLLGLSGQAGSFTEPVVRAMLANTPRPVIFPLSNPTSATEALPDDLVYWTEGRALVAAGSPFPPVGFKGRTVPIGQGNNAFVFPGLGLGAVLSRAREVTDGMVLEAAYALYDYTREHFPERIYPPVGRLREVSPYVAARVMQRALEEGVAEEARVQGLTLEALLDFVKSRFWEPRYLPYRPAPVI”: “soluble”; for “MSLAQFSVNAQRFDPYKNFKFRIKWDGRYVAGVSKVSALKRTTEVVEHREGGDASNVRKSPGRTKYEPITMERGVTHDTEFEKWANKVWNYGSGMGAEVSLKDFRKDIIIEVYNEAGQLAIAYKVYRCWVSEYQALPELDANANAVAIQSMKLENEGWERDYDIGEPDEPTFTEPQEGHHHHHH”: “soluble”.
For the sequence “MQDQVIICDLDNTIFDTSSIDPELFASLLHKATEYLSGSFTAEIILSIIQDIVSNPFDRVCEKYGLPKSMILPVLDELNGISLEHSAMVPYEDYAAFRAIPAYKILVTTGFKRLQEEKLRKLQIRQDFDRIIINDPVYANSSKLDIFRELSRELDLKDRKTYVVGDDPASEIKAGRELGFTTVLMVRKEYLSNSYTDYIISSFEGLRDLLRDNMENDYALRK”, the “soluble on expression in E. coli” value was “soluble”.
As for “MIEMTPDSSVYKALLESTKAIPWKINWQTMAFEYIGPQIEALLGWPQGSWKSVEDWATRMHPEDQEWVVNFCVKQSECGVDHEADYRALHRDGHYVWIRDVVHVVRDDSGEVEALIGFMFDISERKKTLEHHHHHH”, the “soluble on expression in E. coli” value is “soluble”.
As for “PEKKKRKRGSRGGKKGRKSRIANIPNFEQSLKNLVVSEKILGYGSSGTVVFQGSFQGRPVAVKRMLIDFCDIALMEIKLLTESDDHPNVIRYYCSETTDRFLYIALELCNLNLQDLVESKNVSDENLKLQKEYNPISLLRQIASGVAHLHSLKIIHRDLKPQNILVSTSSRFTADQQTGAENLRILISDFGLCKKLDSGQSSFRTNLNNPSGTSGWRAPELLEESTKRRLTRSIDIFSMGCVFYYILSKGKHPFGDKYSRESNIIRGIFSLDEMKCLHDRSLIAEATDLISQMIDHDPLKRPTAMKVLRHPLFWPKSKKLEFLLKVSDRLEIENRDPPSALLMKFDAGSDFVIPSGDWTVKFDKTFMDNLERYRKYHSSKLMDLLRALRNKYHHFMDLPEDIAELMGPVPDGFYDYFTKRFPNLLIGVYMIVKENLSDDQILREFLYS”, the entry is “soluble”; as for “MSLEHQLANVYETKIRRNEHPTIPRPLVTFEPAAIRSKPSSPISELEVFTSEQLIKVTSSIRWKTLSSAVLGAGFKWHQTFVNRHVSKDYYCDDVEREFQTFLSNVGVDGTDALGMMTAAILEDVAITEATYESFKVRVFVTAGISNAVDAAKAHLRKRNEATVGTINTWVFIEGTLPDAAYVQALMTATEAKGRALAEKEILDPVTGTLATGTSTDSVMIASSQTGTYFPYAGTITPLGQAIGKLVYDATIQAVTDNEKRRLEREGHHHHHH”, “soluble”.
As for “MNETIAFRPEGRASIKDVVVNYTLASLDELEQLHPALNLLAHPSIVRGSHDFFVRCYDAGVQHAQAGAAETVAVLPDSLPQERQRSGLLCAAAGRLDALRQPLTHNRLCDLASQFCAGMADVDSETRSGFYTVRSISLPVYRRLLRDQHSHGVCLQQALLHLLAWKSDSPWARQQAQRLLWQGGVLGDKGEFALMTLDDELRERQIGWPGLWSLLAVTGFLAKFPAGPIFAD”, the “soluble on expression in E. coli” value is given as “not soluble”.
As for “MKAIILAGGHSVRFGKPKAFAEVNGETFYSRVIKTLESTNMFNEIIISTNAQLATQFKYPNVVIDDENHNDKGPLAGIYTIMKQHPEEELFFVVSVDTPMITGKAVSTLYQFLVSHLIENHLDVAAFKEDGRFIPTIAFYSPNALGAITKALHSDNYSFKNIYHELSTDYLDVRDVDAPSYWYKNINYQHDLDALIQKLLEHHHHHH”, the entry is “soluble”; as for “SSSSSDGGLFRSRPAHSLPPGEDGRVEPYVDFAEFYRLWSVDHGEQSVMTAP”, “soluble”; as for “TDVATVVSQAKAQMKEAYYTYSHTVTETGQFPDIKDVYAAYNKAKQAYANAVAVVNKAGGAKKDAYLADLQAIYETYVFKANPKSGEARVATYIDAYNYATKLDKMRQELKAAVDAKDLKKAEELYHKISYELKTRTVILDRVYGQSTRELLRSTFKADAQALRDRLIYDITVAMKAREAQDAVKAGNLDKAKAALDQVNQYVSKVTDAFKAELQKAAQDAKAAYEAALTPKVESVSAIDSTSFKVTFTKPVDKATAIPKNFSITLKGTETKLYPKSVEVSESGLTATVTLYDTLVDGKTYTVVTSGLKDTAGKEFETSTNEFTYNKPVPASITFNFNKLPEDSAVDLTKYVTVKDAAGNVIKSGFELEFTSSEKLTQGKFINTTGKKSVIVNATVKGTNVTTGNVILAVED”, “soluble”.
The same measure for “VGKEKMPVELYHAGEEITQLVREFATDKMKKAVQTFEKLERMENMDRVKEETLAHFEETLEDFEDFVGDIEEVLQDIIKEEVRKLIVHENVRPDNRKLEEIRP”: “not soluble”.
